Experimental data from publication PMC11102226, “Three-dimensional DNA nanomachine biosensor coupled with CRISPR Cas12a cascade amplification for ultrasensitive detection of carcinoembryonic antigen”.

Target: carcinoembryonic antigen (CEA) (UniProt P06731 35-685)
Assay: agarose gel (displacement of Walker strand from aptamer-Walker duplex); 10 ng/mL CEA; DNA 10 uM; aptamer pre-hybridised to Walker; aptamer-Walker duplex formed in 1x PBS (0.01 M, pH 7.4) at 37 C for 1 h; sensor with 10 mM Mn2+; gel binding buffer not given in the available material
Settings: protein displaces Walker

Chain of carcinoembryonic antigen (CEA) (P06731 35-685): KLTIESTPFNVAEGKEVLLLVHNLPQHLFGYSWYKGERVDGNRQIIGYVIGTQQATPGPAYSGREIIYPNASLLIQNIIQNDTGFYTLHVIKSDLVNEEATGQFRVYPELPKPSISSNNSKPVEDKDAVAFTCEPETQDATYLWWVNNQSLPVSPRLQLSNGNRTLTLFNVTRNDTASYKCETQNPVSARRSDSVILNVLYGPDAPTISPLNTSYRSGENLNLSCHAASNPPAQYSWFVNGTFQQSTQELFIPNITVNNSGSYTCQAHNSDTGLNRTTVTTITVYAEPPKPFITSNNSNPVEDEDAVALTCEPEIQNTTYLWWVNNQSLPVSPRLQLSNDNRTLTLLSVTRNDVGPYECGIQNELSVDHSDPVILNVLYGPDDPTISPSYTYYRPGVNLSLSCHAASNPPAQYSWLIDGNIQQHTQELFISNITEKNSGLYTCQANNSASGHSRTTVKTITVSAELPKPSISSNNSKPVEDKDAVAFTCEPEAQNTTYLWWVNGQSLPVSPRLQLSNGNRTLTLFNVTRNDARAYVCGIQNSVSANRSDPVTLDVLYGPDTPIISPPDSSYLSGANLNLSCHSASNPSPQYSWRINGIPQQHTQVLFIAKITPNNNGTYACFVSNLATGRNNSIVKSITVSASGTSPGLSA

Q: Does ATACCAGCTTATTCAATT (ssDNA) [CEA aptamer] bind?
A: binds
